The domain aggregation screens of Martell et al. (2025)

Assay: soluble fraction after stress (log2 fold change); higher = more stays soluble; pooled small domains, quantitative proteomics
Conditions: stress: 75 degC
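Also: 20 min heating vs room temperature control held 20 min.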

Compared with “HMGALARLLASVEQELGVTRDRMTRTQKQEAVTLLNEWGAFTLRKSVEDVAEALGVSRFTVYNYLERAEA”, “HMGALSLDMLFDRFDALQEQSMGDKTEGGQELRGMIRTFIEQEKLDIRVTRTTTNAALLEMIEKEMQG” is higher in “soluble fraction (log2)” value: -2.99 for the first, -0.717 for the second.

First: HMGASALTEREREVLRLLEGGGSDKRIARQLAISEHGVRYHLKSIYKKLGVHDRVSAIAAGRRLAS
Second: HMGASTQLVEIKNAYENGEWQNVIDLAGKLHEKYNGSEEDKEAQEMAKNSQSKLDEAAAAKAAEEA
The “soluble fraction (log2)” value of the first is lower: -1.37 for the first, 0.0816 for the second.

“HMGASYSQFLDQVDSGNVQKVAFGGDMRGGTSQLTYTTRGGQSSTITAPFDRDLINVLRTKNVEIVQEEP” and “HMGATFITSSKDNAINIRQAAGTDSKVIETIKNGHILESSEKSGEWYKVTYYDSDIKKTFTGYIHNSQLK” are within 0.2 log units of each other in “soluble fraction (log2)” value: 0.236 for the first, 0.376 for the second.

Compared with “HMGAVQFAEQKIHIGSRWIGKKISEFSAESDAFVILIKRGSEVVIPRGPTDIVENDVLVIHVPD”, “HMGAVVSPMPGVILDIKVKEGDSVSEGQTVIILEAMKMENEIVSEFTGTVSAIRVKKGDTVDTDAVLVEI” is higher in “soluble fraction (log2)” value: -3.05 for the first, -1.76 for the second.

First: HMGAYPENSLLKERGQSAVYLIQENRKRLFFNAEAFLINGYNWKDIQVVDDLSKILTGKVIYAK
Second: HMGDAATVFRDHYNINSAAQAQAALDRKEALWEQPNPWRDSDNREVFDWAAQTVKDRFDSGKYKPK
The “soluble fraction (log2)” value of the first is lower: -2.83 for the first, 0.626 for the second.

Going from “HMGDDVRKNILDVLSKFERVDITDLDSLELVRFYLEIEDIFDIEIKENDFYRLKSVDSIVDYIRNKSFF” to “HMGDIQFMEYRINHSSGWIGKNISDFAAVSKNLVILIKRGQDVVIPRGPTAIMEDDVLVLHA”, the “soluble fraction (log2)” value falls from -1.31 to -1.88.

Compared with “HMGDITALMPGKVIQIIVKEGQEIKVGDPLIVIESMKMENTISSEVNGTIKSINIQIDDNVQFDQVLFTV”, “HMGDITIPDLQGMSFDQAREKLKALGLSIGKISYTSDTSKDDGVVISQGLQAGGKASKGATVDITINET” is higher in “soluble fraction (log2)” value: -2.54 for the first, 0.332 for the second.

Compared with “HMGDLEEAVKDFSEAIRLNDSWAEAYANRAVVYAEQGDAAQSDQDAEKARLLGVDQNRLNEMLNAVNS”, “HMGDLKALMPGKVTQVLVSGGQKVKVGEPVLLMESMKMEQTIVATKDGDISEILVSEGDTVEVGKIMIKI” is lower in “soluble fraction (log2)” value: 0.294 for the first, -0.00398 for the second.

Going from “HMGDLTVPDLSGLTVDQAKQRLKDMGLVLGKITTQEDSSKPDGVIISQSPSADGKINKGQLVDVVVNKLS” to “HMGDTHKVPGVKGVNVEQAMDMLSRLDLKAVVIDSVYVKDKKLGTVIEQNPVEGSVVKPGRPIYLVVNSRS”, the “soluble fraction (log2)” value rises from 0.034 to 0.352.

“HMGDTISVPAVRTLAYNKAMDILNAEGLKGIVADSVYDNHTAPGTVIEQNPKAGTIVKEGREVFLTIHA” and “HMGDWITGTVTRIADNGWGTFQPENAHNTVSIPPKMVADNQLKEADSIKIIAEPSPDGTKTFIKAISRE” are within 0.2 log units of each other in “soluble fraction (log2)” value: 0.117 for the first, 0.113 for the second.

“HMGEDSEPVQVPDVTGQPLWEARRTLSSMGLKVLDDGGSGSVTAQMPSAGATLRNGGQMMLYTYDEALPE” and “HMGEEIRTWTDAQGRKIEARMSMLDGDQVLLELKDGRKIPYPLAKLSADDAHYARHFASASASD” are within 0.2 log units of each other in “soluble fraction (log2)” value: 0.126 for the first, -0.0336 for the second.

Compared with “HMGEFVQLKNRTGSVIEAKILNYQNGKVKLQRKDGVIFVVPISIFDRMSSSIIENKAKEMDSF”, “HMGEIHAQIPGLVSHLFVKEGNTVQVEQKLFILEAMKMENEIDSPIQGTVKRIHIATGSKVEKGDLIMEIS” is lower in “soluble fraction (log2)” value: -0.263 for the first, -1.47 for the second.

First: HMGEKFTFGQIAKAKAYAKTYANDMTSAVKNIEAIATGLSKHPEVADTLKKANENQELNRITKLAG
Second: HMGEKPTEITLSNAISVQELAEKLYVSETDIIRTLFLDGIIVNINQVLDLETAVKVGDQLGVTITIVE
The “soluble fraction (log2)” value of the first is higher: -0.0289 for the first, -1.33 for the second.

Going from “HMGEKTVPNVIGQKLATAKQLLEKEGLTVGSTSYNKNQADKDTVLSTDPAPGSHLSEGAKVNLTLSSGA” to “HMGEKVIAVSGGFDPIHVGHLRMMQDAAQHGRLVVIVNSDEWLLKKKGYVFMPWEERAELIGAYDFVDE”, the “soluble fraction (log2)” value falls from 0.0786 to -0.964.

Compared with “HMGELDPKIIAQINTFLQGITKLIEHPGNKDAKKTALGALHKLTFDQNITANFGKQLGQLDQVIQSSEET”, “HMGELGPGSRGQAVRALQERLMALGFPLARFGADGIFGRETTGALRAFQHVAGLSPTGLGDHETLKWLGII” is lower in “soluble fraction (log2)” value: 0.0337 for the first, -1.33 for the second.

Going from “HMGELTNALATLSERERDVARLVAQGLDNRQIAAQLFLSEGTVRNRISDILDKLALTNRTQLAIAWLHAE” to “HMGEPTLTIRVVSYNPQSGEMVVVARDPLSGRYALATLNVRTGAGQMIGPQGELLPIENFALGS”, the “soluble fraction (log2)” value falls from -1.4 to -1.65.

First: HMGEQVAVPDVTKKSVREVNNILTSAGLRLQIEGSGISVRQDPPADTMVAPDTVVTVSFEPP
Second: HMGEQVFSRKDLAINGNDLKAVFGWPPGPKYREALDQLFHWVLEDPARNRRETLLAYLHSLYD
The “soluble fraction (log2)” value of the first is higher: 0.118 for the first, -0.136 for the second.

Going from “HMGESEKTLELVSQKDALVDEAFFFVRFQALLESNKTKGAQDLLDQSNHLSAAKLLQANAYLDIV” to “HMGESFEELAREISDDTGSKTEGGETGLFPRGVMAPQFEEAAFLLKVGDISEPIRTKFGYHIIKLKEIKP”, the “soluble fraction (log2)” value falls from 0.44 to -0.0117.

Compared with “HMGESVVVPDLRGKTLEEARAILKKVDLDYEINDSTYSKTAVPGTIRDIVPAPGSHVKAGRILFVSING”, “HMGETISVPAVRSLAYDRAVDMLTAEGLKGIVADSVYDNRTQPGTVIEQNPKAGTIVKEGREVYLTINA” is higher in “soluble fraction (log2)” value: -0.553 for the first, 0.275 for the second.

First: HMGFAPEAAREEVAQLIGQRGRAVTVLRPSGQVEIAGRRFEATVEVGAVDAGDTIVVRGQTAFALLVEKAD
Second: HMGFKLQRYTTFVVERLKKYQDTPAAQMHDLLKEHYPDFPAVSPKTVYNYVMKIRQEHGLPAV
The “soluble fraction (log2)” value of the first is higher: -0.292 for the first, -4.26 for the second.

Compared with “HMGFSERLAQAMSHAGYTQGGLAKAVGMAQSSVNKLLNNANSSRKTVEIASVLGVRPEWLSTGEGDML”, “HMGFSKGKRDLIRMIKLAIRELADDNGRAQIEDVITRLVQEGHSRDEIRLQIDMFLRQGEAMEPKQGIIKL” is lower in “soluble fraction (log2)” value: -0.092 for the first, -1.08 for the second.

Compared with “HMGFSLEQFGTDPDLKKIVENAFERIITASEGRIFKSDFSSNNSALPLEIFSFLIAVILLKLSGMN”, “HMGFVATRSRKFLPFSEARAITRGLGFSNQKDYKEWIKGNGNELLLPFNPWRTYGDSGWKGWKDFLGTDKA” is lower in “soluble fraction (log2)” value: -0.157 for the first, -1.39 for the second.

Going from “HMGFYDLFINLADKVGSLADVTQILAEARINLVNVHILEIREEIDGIAQLTFSSEKDRQKALELLKTKYK” to “HMGGDFVEHLKDLASEAPVIRLVNTIIGRVIDLRASDIHLEPFDDGLHVRYRVDGVIHPGELVPPRLS”, the “soluble fraction (log2)” value rises from -1.87 to 0.0444.

First: HMGGEGQIEIREREGIPAEAWVDGVMRGQTPLRVEHVSIGTRRVELRAEGRPPVAADVLVRPTVTALVELS
Second: HMGGEHPIPEDWAVNEANYEHGAKFYGYTRAHVDAEAQAFRDQYAANGKKYVDWDAHFRTFMRWQNERRYG
The “soluble fraction (log2)” value of the first is higher: 0.263 for the first, -0.0635 for the second.

Compared with “HMGGEPVSARVPDTLHGARLDATAAALFPDFSRSRLAEWIKAGRLRRNDQPAKPRDKVAVDDHLLLIPEY”, “HMGGFSVTAEAFDGTPEVGKTVGFTAGSTKIKVEDTKGDATFGTILEKETVGFGEGKYTYFYIGL” is lower in “soluble fraction (log2)” value: 0.0937 for the first, -0.428 for the second.

“HMGGKAITGGEGEIIIRADKAETVAIYGIDGRLVHRVSTEAGDTKRVSVPAGIYIVKGAKVVV” and “HMGGKTAVVTGSLVNVRKGPGTGNALVGQVARGDELPVLGQDGDWYQIKLANGSNGWVAGWLVSLKDAVP” are within 0.2 log units of each other in “soluble fraction (log2)” value: 0.179 for the first, 0.334 for the second.

First: HMGGLIDQSIQEIIDKYSVPGKKIQKAQRLKIVAEMHTKGIFKMRGGVQQAAQALGVTRYTVYNDLEVMN
Second: HMGGLLSVIQKKAINNVKDRYSENAIKSMTKVQLHDLIKAETSRLLDPANAKETPEYQAFLEE
The “soluble fraction (log2)” value of the first is lower: -3.08 for the first, -0.0634 for the second.

“HMGGLSAEQKNGIQSVLKNFDPKNLTSADAKSITSEFKKLGVQPGKDLETTMAASGFDAKEVGRLAF” and “HMGGPRDVPYSTFLIEVEKGQVAEVTIQDHKITGTYKNSNEPFITNAPDDPDLVSRLIKYGVGVQAKPPE” are within 0.2 log units of each other in “soluble fraction (log2)” value: 0.106 for the first, 0.0896 for the second.

Compared with “HMGGREEAGTDIARLLGYINDIHGEELIAKLEYYQKMLGSENFAVLMSRLPDGQKKELREQNLYSEYV”, “HMGGRRHANMSREEEAAFLAPFFEKAAQGGILVVREIRQALDAHLGRTVPLSTVYNLLHRHNWRKL” is lower in “soluble fraction (log2)” value: -0.152 for the first, -3.39 for the second.

Compared with “HMGGRTITVGISENMTVKDIAQMLEEKGLIEDARLFVVQELLSAYHKEIKPGIYDLSTDMTAAQMLEIMS”, “HMGGSIDITTAPPGAKIYLDADYYGKTPKRLENISAGTYRLHLLHPEKGEVYRSVTLNEKNGTLKIDENLN” is higher in “soluble fraction (log2)” value: -0.443 for the first, 0.0541 for the second.

First: HMGGTATDYYNQGRTAYDVGDYNGALMNFQEAVRLDPRYGEAYYGLGKAYEALNMQNQALDAYLSAI
Second: HMGGVSTDKPLNWDADGTSKLTQEQIDYLRSTYDLSDMSKQDYYDLMADLTNMNAISIKDVISQYVK
The “soluble fraction (log2)” value of the first is lower: -0.529 for the first, -0.0294 for the second.

“HMGGYVVVGDKDGFWSVVSTPVSKAKAEELLKDTTFPKGEKGKIVSVAEAMSHKKVIGKEYLESGGT” and “HMGHASPGNREALQFALERHQARAAEFAEKAGLSIANASTKFKQLWEQGFLMRNESVADSGGVEFLYQR” are within 0.2 log units of each other in “soluble fraction (log2)” value: 0.0752 for the first, -0.113 for the second.

Compared with “HMGHEISLNNSRFLKLLNKTKISISNDDTRHYLNGIFLHLTEAHGRQFLTGVATDSHRLSSSSLEID”, “HMGHRQRRARARNRSMLEDIPGLGPKRRQQLLRQFGGLPQLMRAGVAELSQVPGISDSLARKIHAELHPES” is lower in “soluble fraction (log2)” value: -0.206 for the first, -2.73 for the second.

Compared with “HMGHYGQMTRDLIEKAKTYEEGEEKAALVLTIANLMKRHYLTWNRATVENTLIAEQLKEMSEGALTLPEDV”, “HMGIAEGSSVFVRVLAAEDGGRYTVSFAGRRFSVLSRQALGIGSAFRADVKVEKGQVLLVPR” is lower in “soluble fraction (log2)” value: -0.956 for the first, -2.95 for the second.

For “HMGIAERKEKQKLEIRNAILEASRKLIVEEGFEKVTMRKIADLIEYSPTTVYLYFKDKNEILFHLHQ”, the “soluble fraction (log2)” value was -1.54.
